Experimental data taken from article PMC8822174, “Evidence for the Rapid and Divergent Evolution of Mycoplasmas: Structural and Phylogenetic Analysis of Enolases” (Frontiers in Molecular Biosciences, 2021).

B1: Mycoplasma pneumoniae enolase (enzyme)
chain: MSAQTGTDLFKIADLFAYQVFDSRGFPTVACVVKLASGHTGEAMVPSGASTGEKEAIELRDGDPKAYFGKGVSQAVQNVNQTIAPKLIGLNATDQAAIDALMIQLDGTPNKAKLGANAILAVSLAVAKAAASAQKTSLFKYLANQVMGLNKTEFILTVPMLNVINGGAHADNNIDFQEFMIMPLGANSMHQALKMASETFHALQKLLKQRGLNTNKGDEGGFAPNLKLAEEALDLMVEAIKAAGYQPGSDIAIALDVAASEFYDDTTKRYVFKKGIKAKILDEKEWSLTTAQMIAYLKKLTEQYPIISIEDGLSEHDWEGMETLTKTLGQHIQIVGDDLYCTNPAIAEKGVAHKATNSILIKLNQIGTLTETIKAINIAKDANWSQVISHRSGETEDTTIADLAVAACTGQIKTGSMSRSERIAKYNRLLQIELELGNNAKYLGWNTFKNIKPQKA
notes: also called Mp Eno; M. pneumoniae Eno
B2: Mycoplasma bovis enolase (enzyme)
chain: MPIIERIQAREILDSRGNPTVQVEVTTDYEITGVANVPSGASTGSREALELRDKGTKYEGNWFGGKGVMTAVDNVNEKIAPELIGMSVFDQRAIDKLMIELDGTATKSKLGANAILGVSLAVARAAATELGMPLYRYIGGANAHTLPLPMLNVLNGGEHASNTVDFQEFMIMPVGAKSLREALQMANKVFHNLAKLLKKAGYGTQVGDEGGFAPNCKSHEEVLDYLVEAIKVAGYTPATSGKNAIAIALDAACSELYDENSKKYTFKKLKQAIAEKRSGFEHLDNVKLEYTTDELIEYFGKLIDKYPIISIEDGLAESDWEGFAKMTAKFGSKVQIVGDDLTVTNPKLLEKAIEQKSMNAILIKLNQIGSLSETMDAINKAQKANMACVVSHRSGETEDTTIADLAVAFNTGQIKTGSMSRTDRIAKYNRLLVIEEELGEQSEFEGSKAFYNIK
notes: also called Mb Eno; M. bovis Eno

Target: the molecule itself
Experiment: native gel or EMSA

Row | Protein | stoichiometry N
1 | B1 | 2
2 | B2 | 8
